One series can be described thus: circular dichroism. To be noted: 50 mM sodium phosphate (stated for FIG. 5; assumed for the rest), pH 8.0. (Circular dichroism is the unequal absorption of left and right circularly polarised light.)
Series [1] is described as follows: CD measurements of peptide conformation and % helicity. Particulars: 20° C. The format is physicochemical. The source says: The conformation of peptide 1 and 2 was investigated by CD measurements (FIG. 4).
(Peptide 1 of FIG. 2 corresponds to Peptide “1)” of FIG. 17, while Peptide 2 of FIG. 2 corresponds to Peptide “4)” of FIG. 17).

Series [2] can be described thus: Variable temperature CD measurement of α-helix stability. Particulars: 20° C. to 90° C.; 50 mM sodium phosphate buffer (pH 8.0), alone and with 100 mM NaCl, 1 M NaCl, and 10% TFE. It counts as physicochemical. The text has this: These observations indicate that the proline stapled peptides adopt an α-helix conformation with extraordinary stability.

Numbered stars: 1 amine (or outer) side, 2 acyl side, 3 side chain; on linkers, the order of the positions; unused ones are H or OH. Bridge positions count the residues as written; N and C are the ends. Square brackets hold non-standard residues; d marks the D form. Ends that are not written are not given here. Peptide text beside a SMILES is read from it. * marks the point of attachment. PR3 = (R)-N-(acetyl)-2-(2'-propenyl)proline, C=CC[C@@]1(C(=O)*)CCCN1C(C)=O; S3 = α-methyl,α-allylglycine, C=CC[C@](C)(N[*:1])C(=O)[*:2]; X1 = O=C([C@]1(CCCC=[*:3])CCCN1[*:1])[*:2]; X2 = O=C([C@]1(CC=[*:3])CCCN1[*:1])[*:2]; X3 = C[C@@](CC=[*:3])(N[*:1])C(=O)[*:2]; S8 = C=CCCCCCC[C@](C)(N)C(=O)O; R5 = C=CCCC[C@@](C)(N)C(=O)O; S5 = C=CCCC[C@](C)(N)C(=O)O

Regarding `CC(=O)N1CCC[C@]12CC=CCCCC1(CCCC=CCCCCCC[C@@](C)(C(=O)N[C@@H](C)C(=O)N[C@@H](C)C(=O)N[C@@H](Cc3c[nH]c4ccccc34)C(N)=O)NC(=O)[C@H]([C@@H](C)O)NC(=O)[C@H](CC(N)=O)NC(=O)[C@H](CCCNC(=N)N)NC(=O)[C@H](C)NC(=O)[C@H](CCCNC(=N)N)NC(=O)[C@H](CCCCN)NC1=O)NC(=O)[C@H](C)NC(=O)[C@H](C)NC2=O` (stereo partly drawn), the helicity in “circular dichroism” (ns °C) is 81%. Same read-out and setting: under `CC(=O)N1CCC[C@]12CC=CCCCC1(CCCC=CCCC[C@](C)(C(=O)N[C@@H](CC(N)=O)C(=O)N[C@H](C(=O)N[C@@H](CCC(=O)O)C(=O)N[C@@H](C)C(=O)N[C@@H](C)C(=O)N[C@@H](Cc3c[nH]c4ccccc34)C(N)=O)[C@@H](C)O)NC(=O)[C@H](C)NC(=O)[C@H](CCCNC(=N)N)NC(=O)[C@H](CCCCN)NC1=O)NC(=O)[C@H](C)NC(=O)[C@H](C)NC2=O` (stereo partly drawn) stands 47%; under `CC(=O)N1CCC[C@]12CC=CC[C@@](C)(C(=O)N[C@@H](CCCCN)C(=O)N[C@@H](CCCNC(=N)N)C(=O)N[C@@H](C)C(=O)N[C@@H](CCCNC(=N)N)C(=O)N[C@@H](CC(N)=O)C(=O)N[C@H](C(=O)N[C@@H](CCC(=O)O)C(=O)N[C@]1(C)CC=CCCNC(=O)[C@H](Cc3c[nH]c4ccccc34)NC(=O)[C@H](C)NC1=O)[C@@H](C)O)NC(=O)[C@H](C)NC(=O)[C@H](C)NC2=O`, 64%; under `CC(=O)N1CCC[C@]12CC=CC[C@@](C)(C(=O)N[C@@H](CCCCN)C(=O)N[C@@H](CCCNC(=N)N)C(=O)N[C@@H](C)C(=O)N[C@@H](CCCNC(=N)N)C(=O)N[C@@H](CC(N)=O)C(=O)N[C@H](C(=O)N[C@@H](CCC(=O)O)C(=O)N[C@]1(C)CC=CCNC(=O)[C@H](Cc3c[nH]c4ccccc34)NC(=O)[C@H](C)NC1=O)[C@@H](C)O)NC(=O)[C@H](C)NC(=O)[C@H](C)NC2=O`, 64%. Turning to `CC(=O)N1CCC[C@]12CC=CC[C@@](C)(C(=O)N[C@@H](CCCCN)C(=O)N[C@@H](CCCNC(=N)N)C(=O)N[C@@H](C)C(=O)N[C@@H](CCCNC(=N)N)C(=O)N[C@@H](CC(N)=O)C(=O)N[C@H](C(=O)N[C@@H](CCC(=O)O)C(=O)N[C@]1(C)CCC=CCCNC(=O)[C@H](Cc3c[nH]c4ccccc34)NC(=O)[C@H](C)NC1=O)[C@@H](C)O)NC(=O)[C@H](C)NC(=O)[C@H](C)NC2=O`, the helicity in the series “circular dichroism” (ns °C) came out at 80%. Same read-out and setting: under `CC(=O)N1CCC[C@]12CC=CC[C@@](C)(C(=O)N[C@@H](CCCCN)C(=O)N[C@@H](CCCNC(=N)N)C(=O)N[C@@H](C)C(=O)N[C@@H](CCCNC(=N)N)C(=O)N[C@@H](CC(N)=O)C(=O)N[C@H](C(=O)N[C@@H](CCC(=O)O)C(=O)N[C@]1(C)CCC=CCNC(=O)[C@H](Cc3c[nH]c4ccccc34)NC(=O)[C@H](C)NC1=O)[C@@H](C)O)NC(=O)[C@H](C)NC(=O)[C@H](C)NC2=O` stands 69%; under `CC(=O)N1CCC[C@]12CC=CC[C@@](C)(C(=O)N[C@@H](CCCCN)C(=O)N[C@@H](CCCNC(=N)N)C(=O)N[C@@H](C)C(=O)N[C@@H](CCCNC(=N)N)C(=O)N[C@@H](CC(N)=O)C(=O)N[C@H](C(=O)N[C@@H](CCC(=O)O)C(=O)N[C@]1(C)CCCC=CCNC(=O)[C@H](Cc3c[nH]c4ccccc34)NC(=O)[C@H](C)NC1=O)[C@@H](C)O)NC(=O)[C@H](C)NC(=O)[C@H](C)NC2=O`, 73%; under `CC(=O)N[C@]1(C)CCCC=CCCCCCC[C@@](C)(C(=O)N[C@@H](CC(N)=O)C(=O)N[C@H](C(=O)N[C@@H](CCC(=O)O)C(=O)N[C@@H](C)C(=O)N[C@@H](C)C(=O)N[C@@H](Cc2c[nH]c3ccccc23)C(N)=O)[C@@H](C)O)NC(=O)[C@H](C)NC(=O)[C@H](CCCNC(=N)N)NC(=O)[C@H](CCCCN)NC(=O)[C@H](CC(C)C)NC(=O)[C@H](C)NC(=O)[C@H](C)NC1=O` (Ac-[R5]AALKRA[S8]NTEAAW-NH2; staple 1-8), 48%.

In “circular dichroism” (ns °C), `CC(=O)N1CCC[C@]12CCCC=CCCCCCC[C@@](C)(C(=O)N[C@@H](CC(N)=O)C(=O)N[C@H](C(=O)N[C@@H](CCC(=O)O)C(=O)N[C@@H](C)C(=O)N[C@@H](C)C(=O)N[C@@H](Cc1c[nH]c3ccccc13)C(N)=O)[C@@H](C)O)NC(=O)[C@H](C)NC(=O)[C@H](CCCNC(=N)N)NC(=O)[C@H](CCCCN)NC(=O)[C@H](CC(C)C)NC(=O)[C@H](C)NC(=O)[C@H](C)NC2=O` (Ac-[X1]AALKRA[S8]NTEAAW-NH2; staple 1-8) displayed a helicity of 61%.

Molecule `CC(=O)N1CCC[C@]12C/C=C\CCC[C@@](C)(C(=O)N[C@@H](CCCCN)C(=O)N[C@@H](CCCNC(=N)N)C(=O)N[C@@H](C)C(=O)N[C@@H](CCCNC(=N)N)C(=O)N[C@@H](CC(N)=O)C(=O)N[C@H](C(=O)N[C@@H](CCC(=O)O)C(=O)N[C@@H](C)C(=O)N[C@@H](C)C(=O)N[C@@H](Cc1c[nH]c3ccccc13)C(N)=O)[C@@H](C)O)NC(=O)[C@H](C)NC(=O)[C@H](C)NC2=O` (Ac-[X2]AA[S5]KRARNTEAAW-NH2; staple (Z) 1-4) yielded a helicity in “circular dichroism” (20 °C) of 44%. Turning to `CC(=O)N1CCC[C@]12CC=CC[C@@](C)(C(=O)N[C@@H](C)C(=O)N[C@@H](C)C(=O)N[C@@H](C)C(=O)N[C@@H](Cc1c[nH]c3ccccc13)C(N)=O)NC(=O)[C@H](C)NC(=O)[C@H](C)NC2=O` (Ac-[X2]AA[X3]AAAW-NH2; staple 1-4), the helicity in the series “circular dichroism” (ns °C) is 70%. The molecule `CC(=O)N1CCC[C@]12C/C=C\C[C@@](C)(C(=O)N[C@@H](CCCCN)C(=O)N[C@@H](CCCNC(=N)N)C(=O)N[C@@H](C)C(=O)N[C@@H](CCCNC(=N)N)C(=O)N[C@@H](CC(N)=O)C(=O)N[C@H](C(=O)N[C@@H](CCC(=O)O)C(=O)N[C@@H](C)C(=O)N[C@@H](C)C(=O)N[C@@H](Cc1c[nH]c3ccccc13)C(N)=O)[C@@H](C)O)NC(=O)[C@H](C)NC(=O)[C@H](C)NC2=O` (Ac-[X2]AA[X3]KRARNTEAAW-NH2; staple (Z) 1-4) returned a helicity in “circular dichroism” (20 °C) of 66%. Turning to “peptide 2: Pro-locked peptide with partial basic region of GCN4, crosslink between PR3 and S3; Peptide "4)" of FIG. 17 (SEQ ID NO:2) ([PR3]AA[S3]KRARNTEAAW; staple 1-4; also: olefin Z-isomer)”, in series [1], the “% helicity” value is 67% and the “conformation by CD” value was “(X-helix”. In addition, the “α-helix conformation on heating” value in series [2] was “completely maintained”.

Values taken from US9617309B2, “Proline-locked stapled peptides and uses thereof” (President and Fellows of Harvard College, priority 2012, dated 2017).
